As usually defined, the EC50 (read off the curve) is the concentration needed to bring the measured effect to its halfway point. The term koff denotes the rate constant with which the complex falls apart. Read a high koff as fast dissociation. For orientation: kon means the rate constant with which the complex forms. A low value points to slow association. A word on the EC50: it is the concentration at which the effect is half-maximal. As usually defined, the Kd is the concentration at which binding is half-saturated. A higher Kd goes with lower affinity.

One molecule from patent US20220372154A1 (APEXIGEN, published 2022) can be followed below.

In assay [1] the target is T1, cynomolgus TNFR2-His tagged protein (cynomolgus, UniProt A0A2K5VET2 132-366).
T1 construct: also called Cyno TNFR2; cynomolgus TNFR2 protein; not shown: His tag
T1 sequence: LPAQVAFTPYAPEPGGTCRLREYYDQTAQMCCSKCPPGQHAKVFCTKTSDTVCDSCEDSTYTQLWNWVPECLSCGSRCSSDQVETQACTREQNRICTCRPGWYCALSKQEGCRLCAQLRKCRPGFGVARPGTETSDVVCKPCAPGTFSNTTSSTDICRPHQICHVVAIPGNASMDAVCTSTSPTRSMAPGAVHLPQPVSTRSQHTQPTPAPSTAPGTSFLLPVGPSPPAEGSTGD
The experiment in a line: ELISA on coated cynoTNFR2-His, OD 450 nm. For orientation: In an ELISA, binding on a coated surface is turned into a signal by an enzyme label.

Assay [2] addresses T2, TNFR2 (as used in the Octet measurement) (UniProt P20333 23-257, limits assumed).
T2 construct: Probably human soluble TNFR2; the legend says only TNFR2
T2 sequence (looked up): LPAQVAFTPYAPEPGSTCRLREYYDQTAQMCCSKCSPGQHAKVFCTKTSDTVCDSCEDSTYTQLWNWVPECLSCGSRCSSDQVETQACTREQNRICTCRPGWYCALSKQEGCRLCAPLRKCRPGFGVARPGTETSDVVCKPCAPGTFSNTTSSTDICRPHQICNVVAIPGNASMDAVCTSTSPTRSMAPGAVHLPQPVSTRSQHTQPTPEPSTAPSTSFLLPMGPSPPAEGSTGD
Briefly: Octet (BLI), monovalent binding. Background: Biolayer interferometry detects binding as a change in optical thickness at a sensor tip.

Assay [3] deals with T3, herpesvirus entry mediator (HVEM) (UniProt Q92956 39-202, limits assumed).
T3 sequence (looked up): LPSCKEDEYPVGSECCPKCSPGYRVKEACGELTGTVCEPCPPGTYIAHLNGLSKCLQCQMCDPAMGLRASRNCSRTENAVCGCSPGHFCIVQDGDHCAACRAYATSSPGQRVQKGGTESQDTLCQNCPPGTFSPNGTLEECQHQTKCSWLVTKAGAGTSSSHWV
Briefly: ELISA on coated HVEM, OD 650 nm. On the procedure:
(§1) To test binding to TNFR family members, target proteins were coated on ELISA plates at 1 μg/mL at 4° C. overnight. Plates were washed, blocked, and antibodies were added at indicated concentrations for 1 hour at RT. Positive control antibodies for each protein were used at ˜1 ug/mL. Antibodies were washed and detected with anti-human IgG HRP for 1 hour. Assay was developed using TMB substrate for 10 minutes. For cell-binding, human CD4+ T cells purified from buffy coats were cultured in flat-bottom plates with anti-CD3/CD28 for 24 hours. Cells were harvested and stained for viability, CD4, CD25 and FOXP3. Test antibody staining was detected using anti-human IgG APC. Binding titration of test antibodies was evaluated on CD4+CD25hiFOXP3+ regulatory T cells and plotted as percent binding.

Assay [4] addresses T4, human TNFR2 expressed on cells (human, UniProt P20333 23-461).
T4 construct: whole, on cells; also called hTNFR2 (cell); CHO-TNFR2
T4 sequence (looked up): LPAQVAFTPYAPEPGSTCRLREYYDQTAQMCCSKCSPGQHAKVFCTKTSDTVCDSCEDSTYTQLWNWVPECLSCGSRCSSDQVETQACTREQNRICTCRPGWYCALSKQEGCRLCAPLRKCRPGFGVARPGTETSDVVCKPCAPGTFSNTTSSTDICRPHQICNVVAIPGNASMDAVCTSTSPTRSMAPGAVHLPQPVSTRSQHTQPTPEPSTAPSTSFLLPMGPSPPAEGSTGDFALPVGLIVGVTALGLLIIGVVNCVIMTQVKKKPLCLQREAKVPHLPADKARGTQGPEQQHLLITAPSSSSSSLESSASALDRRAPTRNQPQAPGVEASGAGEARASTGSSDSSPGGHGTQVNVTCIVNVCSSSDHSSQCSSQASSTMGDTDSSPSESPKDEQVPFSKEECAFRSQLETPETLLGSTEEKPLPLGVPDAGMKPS
Briefly: flow cytometry on cells expressing human TNFR2, MFI median. For orientation: A flow cytometer gives signals particle by particle.

Assay [5] addresses T5, human TNFR2-His tagged protein (soluble) (human, UniProt P20333 23-257).
T5 construct: also called hTNFR2 (soluble); soluble TNFR2-His; not shown: His tag
T5 sequence (looked up): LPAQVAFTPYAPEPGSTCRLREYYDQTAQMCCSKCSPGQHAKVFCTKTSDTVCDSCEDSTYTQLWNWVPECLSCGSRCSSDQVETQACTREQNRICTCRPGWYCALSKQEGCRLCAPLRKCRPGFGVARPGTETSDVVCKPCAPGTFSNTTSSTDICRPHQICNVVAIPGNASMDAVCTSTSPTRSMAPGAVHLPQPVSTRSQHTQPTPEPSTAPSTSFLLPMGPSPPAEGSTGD
The experiment in a line: ELISA, soluble human TNFR2.

For assay [6], the target named is T6, human TNFR1-His tagged protein (human, UniProt P19438 30-211, limits assumed).
T6 construct: also called soluble human TNFR1; not shown: His tag
T6 sequence (looked up): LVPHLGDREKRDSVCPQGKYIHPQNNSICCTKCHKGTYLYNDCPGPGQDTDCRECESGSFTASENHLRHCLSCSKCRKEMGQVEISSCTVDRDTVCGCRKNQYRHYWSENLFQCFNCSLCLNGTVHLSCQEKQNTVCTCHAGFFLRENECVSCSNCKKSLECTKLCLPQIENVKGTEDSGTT
The experiment in a line: ELISA on coated TNFR1, OD 450 nm. On the procedure:
as §1

The target of assay [7] is T4, human TNFR2 expressed on cells. The experiment in a line: cell binding on TNFR2-overexpressing (OE) cells.
Assay [8] concerns the target T1, cynomolgus TNFR2-His tagged protein. The experiment in a line: ELISA, cynomolgus TNFR2.
In the next assay the target is T7, death receptor 6 (DR6) (UniProt O75509 42-349, limits assumed).
T7 sequence (looked up): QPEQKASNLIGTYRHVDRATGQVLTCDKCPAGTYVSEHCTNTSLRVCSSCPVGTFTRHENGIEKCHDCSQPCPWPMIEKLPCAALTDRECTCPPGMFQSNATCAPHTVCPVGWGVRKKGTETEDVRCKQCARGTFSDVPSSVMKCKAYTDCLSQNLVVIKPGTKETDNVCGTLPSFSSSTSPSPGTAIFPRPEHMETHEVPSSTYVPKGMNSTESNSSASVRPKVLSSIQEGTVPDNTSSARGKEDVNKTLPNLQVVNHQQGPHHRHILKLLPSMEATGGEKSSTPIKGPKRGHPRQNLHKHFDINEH
The experiment in a line: ELISA on coated DR6, OD 650 nm. On the procedure:
as §1

The target of assay [9] is T5, human TNFR2-His tagged protein (soluble). The experiment in a line: ELISA on coated hTNFR2-His, OD 450 nm.

B1: humanized antibody h600-25-71 (antibody, V domains shown)
VH: EVQLVESGGGLVQPGGSLRLSCAASGIDLSSYAMGWVRQAPGKGLEWVGDISTSGNAYYATWVKGRFTISRDNSKNTLYLQMNSLRAEDTAVYYCARADYGGETYAFDPWGQGTLVTVSS
VL: DIQMTQSPSSLSASVGDRVTITCQASQSISSYLNWYQQKPGKAPKLLIYSASTLASGVPSRFSGSGSGTDFTLTISSLQPEDFATYYCQQGYSDSNIDNVFGGGTKVEIK
notes: also called Ab 25-71; clone 25-71
As for B1, the “EC50 (read off the curve)” value in [1] was roughly 100 pM; in assay [4], roughly 300 pM; in [9] it was roughly 200 pM. In [2], this molecule yielded a koff of 0.000553 s⁻¹. Besides, the on-rate constant (kon) in assay [2] was 358000 M⁻¹ s⁻¹. The binding result (in [3]; in [6]; with death receptor 6 (DR6)) was “no binding (tested: about 67 nM)” in each case. Moreover, the results for the EC50 in [5] and in assay [8] were 159 pM and 123 pM, respectively. The same molecule displayed a Kd in assay [7] of 120 pM.
